The results in this text go back to patent US20250059295A1 (AstraZeneca / MedImmune, published 2025).

The target of test [1] is T1, six transmembrane epithelial antigen of prostate-2 (STEAP2) (human, UniProt Q8NFT2 1-490).
T1 construct: whole, on cells
T1 sequence (looked up): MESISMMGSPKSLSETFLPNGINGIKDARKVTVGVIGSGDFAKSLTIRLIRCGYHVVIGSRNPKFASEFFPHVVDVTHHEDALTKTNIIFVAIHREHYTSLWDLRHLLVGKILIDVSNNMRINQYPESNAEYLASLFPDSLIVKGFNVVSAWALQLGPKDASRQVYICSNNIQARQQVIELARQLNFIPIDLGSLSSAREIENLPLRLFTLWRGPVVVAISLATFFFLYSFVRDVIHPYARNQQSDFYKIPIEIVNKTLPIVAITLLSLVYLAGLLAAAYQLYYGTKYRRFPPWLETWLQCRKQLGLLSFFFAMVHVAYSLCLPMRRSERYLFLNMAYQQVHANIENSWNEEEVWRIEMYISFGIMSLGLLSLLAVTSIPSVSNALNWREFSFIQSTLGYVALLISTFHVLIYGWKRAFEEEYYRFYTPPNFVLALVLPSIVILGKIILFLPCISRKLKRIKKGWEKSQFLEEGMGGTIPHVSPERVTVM
The test can be described thus: flow cytometry on C4-2 cells expressing STEAP2. On the procedure: (§1) Cell based binding assays were performed on BD FACSymphony™ A5 Cell Analyzer. To determine binding affinity of AZD6621, C4-2 cells and Jurkat (TCR neg) CD8ab+ cells expressing Steap2 and CD8ab respectively were used for the assay. The cells were harvested and resuspended in FACS buffer (DPBS-1X, 2% FBS, & 5 mM EDTA) at 2×10e6 cells/ml. Cells were seeded in U-bottom Tissue Culture treated 96 Well-plate at 50 ul/well making the cell number at 100,000 per well. The test articles (AZD6621) titration were prepared (2×) using FACS buffer with the starting working concentration of 600 nM and with 1:4 dilution up to 8 titration points. Cells (50 ul/well) were then combined with primary antibody (50 ul/well) titration and incubated at 4° C. for 1 hour. After incubation, the cells were washed 2× using 200 ul of FACS buffer and resuspended with freshly prepared FACS buffer (100 ul/well) containing secondary antibody (Anti-H+L: Goat anti-Human IgG (H+L) Cross-Adsorbed Secondary Antibody, Alexa Fluor 647 (Invitrogen #A-21445) at 1:400 dilution) & DAPI (Live/Dead stain). The secondary antibody was incubated at 4° C. for 1 hour. […] The data was analyzed with FlowJo v 10.6.1. The target receptor binding was determined using geometric mean calculation on FlowJo software detecting the positive APC signal in each well. […]
Background: In flow cytometry, cells or beads pass a laser one at a time.

Test [2] has as its target T2, CD8 (cluster of differentiation 8), CD8ab (UniProt P01732 22-235; P10966 22-210).
T2 construct: whole, on cells; The method names Jurkat (TCR neg) CD8ab+ cells
The test can be described thus: flow cytometry on cells carrying CD8. On the procedure:
as §1

T2 sequence (P01732 22-235, chain 1 of 2): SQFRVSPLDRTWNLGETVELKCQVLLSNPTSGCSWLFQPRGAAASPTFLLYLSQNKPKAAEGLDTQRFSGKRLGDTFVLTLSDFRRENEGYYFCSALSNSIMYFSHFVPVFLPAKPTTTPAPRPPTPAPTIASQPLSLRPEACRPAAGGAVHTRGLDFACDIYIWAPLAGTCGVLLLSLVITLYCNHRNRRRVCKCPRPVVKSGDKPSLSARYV
T2 sequence (P10966 22-210, chain 2 of 2): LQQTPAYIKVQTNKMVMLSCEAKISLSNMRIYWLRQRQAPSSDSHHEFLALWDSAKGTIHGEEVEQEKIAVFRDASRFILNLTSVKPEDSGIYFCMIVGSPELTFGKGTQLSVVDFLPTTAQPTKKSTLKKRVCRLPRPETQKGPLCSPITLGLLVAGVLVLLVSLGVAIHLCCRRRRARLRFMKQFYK

B1: 40A3LO12-TED4-K17/E75 (other)
heavy 1: QVQLQQSGPGLVKPSQTLSLTCAISGDSVSRNSAVWNWIRQSPSRGLEWLGRTYYRSKWYNDYAVSVKSRITINPDTSKNQFSLQLNSVTPEDTAVYYCARGLRQNQFYYYMDVWGKGTTVTVSSASTKGPSVFPLAPSSKSTSGGTAALGCLVKDYFPEPVTVSWNSGALTSGVHTFPAVLQSSGLYSLKSVVTVPSSSLGTQTYICNVNHKPSNTKVDKRVEPKSCDGGGGSGGGGSEVQLVESGGALVKPGGSLRLSCAASGFTFTEAWMHWVRQAPGKQLEWVAQIKDRSQTYATYYAESVKGRFTISRDDSKNTLYLQMNSLKTEDTAVYYCRGVYYANAPFDYWGQGTLVTVSSASTKGPSVCPLAPSSKSTSGGTADLGCLVKDYFPEPVTVSWNSGALTSGVHTFPAVLQSSGLYSLSSVVTVPSSSLGTQTYICNVNHKPSNTKVDKRVEPKSVDKTHTCPPCPAPPVAGPSVFLFPPKPKDTLMISRTPEVTCVVVDVKHEDPEVKFNWYVDGVEVHNAKTKPREEQYNSTYRVVSVLTVLHQDWLNGKEYKCKVSNKALPAPIEKTISKAKGQPREPQVYTLPPCREEMTKNQVSLWCLVKGFYPSDIAVEWESNGQPENNYKTTPPVLDSDGSFFLYSKLTVDKSRWQQGNVFSCSVMHEALHNHYTQKSLSLSPGK
light 1: not shown
heavy 2: EVQLLESGGGLVQPGGSLRLSCAASGFTFDDYAIGWFRQAPGKEREGVSCIRVSDGSTYYADSVKGRFTISRDNSKNTLYLQMNSLRAEDTAVYYCAAGSLYTCVQSIVWPARPYYDMDYWGQGTLVTVSSGGGGSGGGGSQVQLQQSGPGLVKPSQTLSLTCAISGDSVSRNSAVWNWIRQSPSRGLEWLGRTYYRSKWYNDYAVSVKSRITINPDTSKNQFSLQLNSVTPEDTAVYYCARGLRQNQFYYYMDVWGKGTTVTVSSASTKGPSVFPLAPSSKSTSGGTAALGCLVKDYFPEPVTVSWNSGALTSGVHTFPAVLQSSGLYSLKSVVTVPSSSLGTQTYICNVNHKPSNTKVDKRVEPKSCDKTHTCPPCPAPPVAGPSVFLFPPKPKDTLMISRTPEVTCVVVDVKHEDPEVKFNWYVDGVEVHNAKTKPREEQYNSTYRVVSVLTVLHQDWLNGKEYKCKVSNKALPAPIEKTISKAKGQPREPQVCTLPPSREEMTKNQVSLSCAVKGFYPSDIAVEWESNGQPENNYKTTPPVLDSDGSFFLVSKLTVDKSRWQQGNVFSCSVMHEALHNHYTQKSLSLSPGK
light 2: DIVMTQSPLSLPVTPGEPASISCRSSQSLVHNTGNTYLSWYLQKPGQSPQSLIYKVSNRASGVPDRFSGSGSGTDFTLKISRVEAEDVGVYYCGQGTQAPFTFGSGTKVEIKGQPKAAPSVRLFPPCSEELQANKATLVCLISDFYPGAVTVAWKADSSPVKAGVETTTPSKQSNNKYAASSYLSLTPEQWKSHRSYSCQVTHEGSTVEKTVAPTEVS
notes: also called TED4 LO12
For B1, the binding result in test [1] and in test [2] was “binds” throughout.
